Blank lines part the entries; values can stand above or below the binder they belong to.
What was measured:
[1] = molecular target: VLA-4 (α4β1, CD49d/CD29) (human (endogenous in Jurkat and primary human CD4+ T cells)) (UniProt P13612)
[2] = molecular target: VLA-4 (α4β1, CD49d/CD29) (human (endogenous in Jurkat and primary human CD4+ T cells)) (UniProt P13612); remark: listed apart in the source

Chain of UniProt P13612 (P13612 34-1032, chain 1 of 2): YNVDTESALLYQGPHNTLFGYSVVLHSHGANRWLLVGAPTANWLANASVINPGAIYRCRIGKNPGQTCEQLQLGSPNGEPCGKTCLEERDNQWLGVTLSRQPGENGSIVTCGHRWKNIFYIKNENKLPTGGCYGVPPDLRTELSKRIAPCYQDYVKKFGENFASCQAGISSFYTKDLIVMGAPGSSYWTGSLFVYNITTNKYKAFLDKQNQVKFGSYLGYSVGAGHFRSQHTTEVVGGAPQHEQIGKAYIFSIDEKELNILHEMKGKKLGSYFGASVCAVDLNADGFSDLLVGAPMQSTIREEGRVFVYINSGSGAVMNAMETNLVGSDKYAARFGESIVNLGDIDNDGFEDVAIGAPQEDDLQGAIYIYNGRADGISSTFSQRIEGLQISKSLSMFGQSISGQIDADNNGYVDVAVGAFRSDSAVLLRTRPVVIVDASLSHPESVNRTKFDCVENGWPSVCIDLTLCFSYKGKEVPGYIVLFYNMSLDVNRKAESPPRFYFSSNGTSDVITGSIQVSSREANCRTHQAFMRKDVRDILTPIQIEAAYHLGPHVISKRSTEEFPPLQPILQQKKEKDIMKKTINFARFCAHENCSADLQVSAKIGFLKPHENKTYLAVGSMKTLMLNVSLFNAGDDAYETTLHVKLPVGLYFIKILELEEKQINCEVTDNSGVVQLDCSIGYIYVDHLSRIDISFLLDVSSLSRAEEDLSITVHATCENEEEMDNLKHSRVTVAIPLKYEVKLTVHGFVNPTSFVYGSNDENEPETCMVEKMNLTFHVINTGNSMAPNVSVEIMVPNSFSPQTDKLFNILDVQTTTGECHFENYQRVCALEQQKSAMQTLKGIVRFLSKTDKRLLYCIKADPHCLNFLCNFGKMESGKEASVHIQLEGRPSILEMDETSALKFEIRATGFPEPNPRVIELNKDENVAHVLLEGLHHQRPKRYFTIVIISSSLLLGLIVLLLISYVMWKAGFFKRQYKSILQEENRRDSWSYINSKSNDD
Chain of UniProt P13612 (P05556 21-798, chain 2 of 2, further chain): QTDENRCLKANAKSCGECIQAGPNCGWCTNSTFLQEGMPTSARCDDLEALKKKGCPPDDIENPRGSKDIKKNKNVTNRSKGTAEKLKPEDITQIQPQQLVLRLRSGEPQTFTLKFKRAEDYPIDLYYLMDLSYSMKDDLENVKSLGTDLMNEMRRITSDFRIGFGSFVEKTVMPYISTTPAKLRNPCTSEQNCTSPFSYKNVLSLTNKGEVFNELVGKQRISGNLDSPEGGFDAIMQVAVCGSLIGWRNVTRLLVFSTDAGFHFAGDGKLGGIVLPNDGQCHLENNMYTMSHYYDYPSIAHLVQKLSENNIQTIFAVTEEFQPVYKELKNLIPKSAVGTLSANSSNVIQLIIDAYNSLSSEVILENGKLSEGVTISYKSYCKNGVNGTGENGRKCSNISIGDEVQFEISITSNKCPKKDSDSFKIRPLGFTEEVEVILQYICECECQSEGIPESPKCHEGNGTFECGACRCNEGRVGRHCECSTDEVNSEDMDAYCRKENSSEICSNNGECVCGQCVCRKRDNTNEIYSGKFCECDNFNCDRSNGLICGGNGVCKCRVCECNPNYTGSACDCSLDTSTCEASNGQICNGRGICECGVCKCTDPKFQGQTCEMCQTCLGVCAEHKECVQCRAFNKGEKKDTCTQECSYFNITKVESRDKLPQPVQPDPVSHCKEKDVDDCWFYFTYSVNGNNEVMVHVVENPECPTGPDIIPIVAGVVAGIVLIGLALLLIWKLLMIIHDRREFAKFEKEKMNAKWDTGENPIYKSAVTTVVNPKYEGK

actin flow rate in the lamellipodial region of Jurkat T cells (GFP-actin) spreading on coverslips coated with anti-CD3 + VCAM-1 (85–95 nm/s on anti-CD3 alone) [1]: 15 nm/s
B1: human VCAM-1-Fc chimera (Fc fusion)
chain: FKIETTPESRYLAQIGDSVSLTCSTTGCESPFFSWRTQIDSPLNGKVTNEGTTSTLTMNPVSFGNEHSYLCTATCESRKLEKGIQVEIYSFPKDPEIHLSGPLEAGKPITVKCSVADVYPFDRLEIDLLKGDHLMKSQEFLEDADRKSLETKSLEVTFTPVIEDIGKVLVCRAKLHIDEMDSVPTVRQAVKELQVYISPKNTVISVNPSTKLQEGGSVTMTCSSEGLPAPEIFWSKKLDNGNLQHLSGNATLTLIAMRMEDSGIYVCEGVNLIGKNRKEVELIVQEKPFTVEISPGPRIAAQIGDSVMLTCSVMGCESPSFSWRTQIDSPLSGKVRSEGTNSTLTLSPVSFENEHSYLCTVTCGHKKLEKGIQVELYSFPRDPEIEMSGGLVNGSSVTVSCKVPSVYPLDRLEIELLKGETILENIEFLEDTDMKSLENKSLEMTFIPTIEDTGKALVCQAKLHIDDMEFEPKQRQSTQTLYVNVAPRDTTVLVSPSSILEEGSSVNMTCLSQGFPAPKILWSRQLPNGELQPLSENATLTLISTKMEDSGVYLCEGINQAGRSRKEVELIIQVTPKDIKLTAFPSESVKEGDTVIISCTCGNVPETWIILKKKAETGDTVLKSIDGAYTIRKAQLKDAGVYECESKNKVGSQLRSLTLDVQGRENNKDYFSPE
modifications: labeled with AF-647 for patterning

actin flow rate in the lamellipodial region of Jurkat T cells on supported lipid bilayers with mobile anti-CD3 + VCAM-1 [2]: 60 nm/s
B2: His-tagged human VCAM-1 Fc (Fc fusion)
chain: B1 chain
